Source: patent US11827701B2, “IL-6 binding molecules” (argenx BV, priority 2012, dated 2023)
Substitutions are numbered along the chain they refer to. Values belong to the molecule of their own block, whether it stands above or below them.

Legend:
IL-6 = assay: Serum amyloid A (SAA) mouse model, induction by injected IL-6; assay type: in vivo; design: SAA, Mean / SAA, Mouse1 / SAA, Mouse2 / SAA, Mouse3 / SAA, Mouse4 / SAA, Mouse5 / SAA, Mouse6: unit not given here; conditions: 0.1 μg IL-6; for SAA, Mean: mean of 6 mice
Method: The in vivo efficacy of clones 68F2 and 61H7 was further investigated by measuring the ability of these antibodies to block serum amyloid A (SAA) induction in response to injected IL-6. General methods for performing this assay are set forth in WO2006/119115A2, which is hereby incorporated by reference in its entirety. […] Four hours after administration of the antibody, the mice were injected with 0.1 ug of IL-6. After a further 16 hours, blood was taken from the mice and the concentration of Serum Amyloid A was determined by ELISA. The dose responses are also graphically depicted in FIG. 13.

[1] = molecular target: T1, eukaryotically produced human IL-6 (Homo sapiens, UniProt P05231); assay: Surface plasmon resonance (Biacore), eukaryotically produced human IL-6 coated on CM5 chip; assay type: binding
T1 construct: purchased Humanzyme HZ-1044; host or cells: Human Embryonic kidney cells
Method: (§1) The binding kinetics of IL-6-specific Fabs that were able to cross-compete with the B-E8 antibody was assessed using surface plasmon resonance (Biacore). Specifically, biotinylated (prokaryotic) IL-6 was captured on a streptavidin biacore sensor chip (CM5-SA) and different concentrations of purified Fabs were injected during 3 minutes following by a 5 minute wash with buffer. From the washing phase the off-rate (kd) was determined, while from the injection phase the on-rate (ka) was calculated using the concentration and off-rate as parameters. […] The binding kinetics of antagonistic purified Fabs (Table 3) and periplasmic fractions of Fab-expressing bacteria (Table 4) were also evaluated by surface plasmon resonance (Biacore) using both bacterially and eukaryotically produced human IL-6 directly coated on a CM5 chip. The Fabs tested had off-rates between 6×10^−4 and 2×10^−5 s^−1.
(§2) VL chain shuffling was used to improve the affinity of the Fabs 17F10, 18C7, 18C9, 18C11, 20A4, 29B11, 16D2 and 28A6. In this method, the heavy chain of these clones (as a VHCH1 fragment) was reintroduced into the primary phagemid-light chain library (see Example 1). Affinity selections were performed to select for chain shuffled Fabs with an improved affinity for IL-6. The binding kinetics of chain shuffled Fabs were evaluated by surface plasmon resonance (Biacore) using both bacterially and eukaryotically produced human IL-6, and cynomolgus monkey IL-6 (Tables 5-7). The VH and VL amino acid sequences of exemplary IL-6-specific Fabs selected by the VL chain shuffling method are set forth in Table 14 below.
(§3) VH chain shuffling was also used to improve the affinity of the Fab 24D10. In this method, the light chain of 24D10 was reintroduced into the primary phagemid-heavy chain library (see Example 1) and selected using an off-rate assay. In this type of selection, the phage were allowed to bind to antigen on a substrate for 1.5 to 2 hours. At round 2, after 15 washes with PBS-Tween, an additional wash was performed with the presence of excess soluble IL-6. […] This procedure avoids re-binding of such phage to the coated target. […] The binding kinetics of chain shuffled Fabs and the benchmark antibodies, BE8 and GL18, were evaluated by surface plasmon resonance (Biacore) using both bacterially and eukaryotically produced human IL-6 (Tables 8 and 9). The VH and VL amino acid sequences of exemplary IL-6-specific Fabs selected by the VH chain shuffling method are set forth in Table 14 below. […]

cynomolgus monkey IL-6 = molecular target: T2, cynomolgus monkey IL-6 (Macaca fascicularis, UniProt P79341); assay: Surface plasmon resonance (Biacore), cynomolgus monkey IL-6; assay type: binding; conditions: purified chain-shuffled Fabs
T2 construct: His
Method: as §2

[2] = molecular target: biotinylated (prokaryotic) IL-6 (Homo sapiens, UniProt P05231); assay: Surface plasmon resonance (Biacore), biotinylated IL-6 captured on streptavidin sensor chip; assay type: binding; conditions: purified Fab
Method: as §1

[3] = molecular target: T3, bacterially produced human IL-6 (Homo sapiens, UniProt P05231); assay: Surface plasmon resonance (Biacore), bacterially produced human IL-6 coated on CM5 chip; assay type: binding; conditions: Bact; purified 24D10 chain-shuffled Fabs
T3 construct: His
Method: as §1, §2, §3

[4] = Euk IL-6, purified 24D10 chain-shuffled Fabs

T1 sequence (P05231 30-212): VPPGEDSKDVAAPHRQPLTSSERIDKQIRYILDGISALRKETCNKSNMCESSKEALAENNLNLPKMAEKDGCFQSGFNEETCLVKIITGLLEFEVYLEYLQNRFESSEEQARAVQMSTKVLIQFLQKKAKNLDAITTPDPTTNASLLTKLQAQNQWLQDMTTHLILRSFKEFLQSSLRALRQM
Sequence of biotinylated (prokaryotic) IL-6 (P05231 30-212): as above
T3 sequence (P05231 30-212): as above
T2 sequence (P79341 28-212): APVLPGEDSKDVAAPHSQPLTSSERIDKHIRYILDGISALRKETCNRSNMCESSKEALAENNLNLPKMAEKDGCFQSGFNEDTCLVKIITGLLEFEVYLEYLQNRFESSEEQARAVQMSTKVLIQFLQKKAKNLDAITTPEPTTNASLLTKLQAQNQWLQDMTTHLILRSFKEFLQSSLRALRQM

B1: CNTO 136 (antibody, chains of the INN, looked up, V domains shown)
VH: EVQLVESGGGLVQPGGSLRLSCAASGFTFSPFAMSWVRQAPGKGLEWVAKISPGGSWTYYSDTVTGRFTISRDNAKNSLYLQMNSLRAEDTAVYYCARQLWGYYALDIWGQGTTVTVSS
VL: EIVLTQSPATLSLSPGERATLSCSASISVSYMYWYQQKPGQAPRLLIYDMSNLASGIPARFSGSGSGTDFTLTISSLEPEDFAVYYCMQWSGYPYTFGGGTKVEIK
SAA, Mouse1 (IL-6; Ab dose/mouse 0.31 μg): 158
SAA, Mouse2 (IL-6; Ab dose/mouse 0.31 μg): 175
SAA, Mouse3 (IL-6; Ab dose/mouse 0.31 μg): 161
SAA, Mouse4 (IL-6; Ab dose/mouse 0.31 μg): 134
SAA, Mouse5 (IL-6; Ab dose/mouse 0.31 μg): 183
SAA, Mouse6 (IL-6; Ab dose/mouse 0.31 μg): 171
SAA, Mean (IL-6; Ab dose/mouse 0.31 μg): 163.7
SAA, Mouse1 (IL-6; Ab dose/mouse 1.25 μg): 107
SAA, Mouse2 (IL-6; Ab dose/mouse 1.25 μg): 54
SAA, Mouse3 (IL-6; Ab dose/mouse 1.25 μg): 67
SAA, Mouse4 (IL-6; Ab dose/mouse 1.25 μg): 56
SAA, Mouse5 (IL-6; Ab dose/mouse 1.25 μg): 62
SAA, Mouse6 (IL-6; Ab dose/mouse 1.25 μg): 71
SAA, Mean (IL-6; Ab dose/mouse 1.25 μg): 69.5
SAA, Mouse1 (IL-6; Ab dose/mouse 5 μg): 80
SAA, Mouse2 (IL-6; Ab dose/mouse 5 μg): 80
SAA, Mouse3 (IL-6; Ab dose/mouse 5 μg): 45
SAA, Mouse4 (IL-6; Ab dose/mouse 5 μg): 55
SAA, Mouse5 (IL-6; Ab dose/mouse 5 μg): 70
SAA, Mouse6 (IL-6; Ab dose/mouse 5 μg): 84
SAA, Mean (IL-6; Ab dose/mouse 5 μg): 69.0

Koff eukIL-6 ([1]; purified chain-shuffled Fabs): 0.0002 s⁻¹
Koff HIS-cyIL-6 (cynomolgus monkey IL-6): 0.00017 s⁻¹
B2: 41B5: light chain shuffled Fab of parental 17F10 (antibody, V domains shown)
VH: EVQLQESGPGLVKPSQTLSLTCTVSGGSIATSYYAWSWIRQPPGKGLEWMGVIDYDGDTYYKPSLKSRTSISRDTSKNQFSLQLSSVTPEDTAVYYCARAGLGDSYYLGTYYAMDYWGKGTLVTVSS
VL: QSALTQPPSMSGTLGKTLTISCNGTSSDIGSGDYVSWYQQLPGTTPKLLIEGVTTRASGIPDRFSASKSDNTASLTISGLQSEDEATYYCASYRETNNVVFGGGTHLTVLS

KA [2]: 4.04e+07 M⁻¹
Rmax [2]: 22.6 RU
ka [2]: 101000 M⁻¹ s⁻¹
kd [2]: 0.0025 s⁻¹
B3: 28C6: antagonistic IL-6-specific Fab clone from immunized llama (antibody, listed as Lama glama, V domains shown)
VH: QVQLVESGGGLVQPGGSLRLSCAASGFTFSNYYMTWVRQAPGKGLEWVSSIYSFSGDTAYADSVKGRFTISRDNAKNTLYLQMNKLKSEDTAVYYCTRDLGGVVVTANGYDYWGQGTQVTVSS
VL: DIVMTQTPSSLSASLGDRVTITCQASQSISTELSWYQQKPGQTPKLLIYGASRLQTGVPARFSGSGSGTSFTLTISGLEAEDLATYYCLQDYSWPYSFGSGTRL

KA [2]: 1.72e+08 M⁻¹
Rmax [2]: 48.2 RU
ka [2]: 288000 M⁻¹ s⁻¹
kd [2]: 0.00168 s⁻¹
B4: 20A4: antagonistic IL-6-specific Fab clone, parental of 68F2 (antibody, listed as Lama glama, V domains shown)
VH: EVQLQESGPGLVKPSQTLSLTCTVSGGSITTRYYAWSWIRQPPGKGLEWMGVIDYDGDTYYSPSLKSRTSISWDTSKNQFSLQLSSVTPEDTAVYYCARDPDVVTGFHYDYWGQGTQVTVSS
VL: ALNFMLTQPPSVSGTLGKTVTISCAGTSSDIGGYNYVSWYQQLPGTAPKLLIHRVSTRASGIPDRFSGSKSGNTASLTISGLRSEDEANYYCASYRNFNNAVFGGGTQLTVLG

KA [2]: 1.51e+09 M⁻¹
Rmax [2]: 38.1 RU
ka [2]: 133000 M⁻¹ s⁻¹
kd [2]: 8.77e-05 s⁻¹
off-rates (range) [2]: ~10^−5 s^−1
Kd ([2]; read-out: affinities): 0.66 nM
B5: 24C9: antagonistic IL-6-specific Fab clone from immunized llama (antibody, listed as Lama glama, V domains shown)
VH: QVQLVESGGGLVQPGGSLRLSCAASGFTFSSYRMYWVRQPPGKGLEWVSAISAGGGSTYYGDSVKGRFTISRDNAKNTVYLQMNSLKPEDTALYYCKKSTWADGESDYWGQGTQVTVSS
VL: QTVVTQEPSLSVSPGGTVTLTCGLSSGSVTASNYPGWFQQTPGQAPRALIYSTNDRHSGVPSRFSGSISGNKAALTITGAQPEDEADYYCALDIGDITEFGGGTHLTVLG

KA [2]: 8.38e+08 M⁻¹
Rmax [2]: 41 RU
ka [2]: 117000 M⁻¹ s⁻¹
kd [2]: 0.000139 s⁻¹
B6: 24E9: antagonistic IL-6-specific Fab clone from immunized llama (antibody, listed as Lama glama, V domains shown)
VH: EVQLVESGGGLVQPGGSLRLSCAASGFTFSTYAMSWVRQAPGKGPEWVSRISSGGGSTNYADSVKGRFTISRDNAKKTLYLQMKSLKPEDTAVYYCANRAGWGMGDYWGQGTQVTVSS
VL: B5 VL

KA [2]: 3.7e+09 M⁻¹
Rmax [2]: 40.6 RU
ka [2]: 62700 M⁻¹ s⁻¹
kd [2]: 1.69e-05 s⁻¹
off-rates (range) [2]: ~10^−5 s^−1
ka [1, 4]: 250000 M⁻¹ s⁻¹
kd [1, 4]: 0.0001 s⁻¹
binding ([1]; periplasmic fractions ('pur' = purified Fab), IL-6 form not stated): 301
ka [3]: 210000 M⁻¹ s⁻¹
kd [3]: 0.0001 s⁻¹
B7: 24D10: antagonistic IL-6-specific Fab clone, parental of 61H7 (antibody, listed as Lama glama, V domains shown)
VH: B6 VH with E1Q, V2L, L4V, T31S, N59S, K77N, K84N
VL: B5 VL

KA [2]: 7.05e+07 M⁻¹
Rmax [2]: 22.1 RU
ka [2]: 55200 M⁻¹ s⁻¹
kd [2]: 0.000784 s⁻¹
B8: 18C11: antagonistic IL-6-specific Fab clone from immunized llama (antibody, listed as Lama glama, V domains shown)
VH: EVQLVESGGGLVQPGGSLRLSCAASGFTFSSYAMSWVRQAPGKGLEWVSAINSGGGSTSYADSVKGRFTISRDNAKNTLYLQMNSLKPEDTAVYYCAKEGDTGWKDPMYDYWGQGTQVTVSS
VL: QSVVTQPSALSVTLGQTAKITCQGGGLRSSYAHWYQQKPGQAPVLVIYDDDSRPSGIPERFSGSSSGGRATLTISGAQAEDEGDYYCQSADSSGNAAVFGGGTHLTVLG

KA [2]: 4.67e+07 M⁻¹
Rmax [2]: 49.9 RU
ka [2]: 55600 M⁻¹ s⁻¹
kd [2]: 0.00119 s⁻¹
B9: 18C9: antagonistic IL-6-specific Fab clone from immunized llama (antibody, listed as Lama glama, V domains shown)
VH: B8 VH with S31R, Y32N, D101Y
VL: LNFMLTQPSALSVTLGQTAKITCQGGSLGSRYAHWYQQKPGQAPVLVIYDDDSRPSGIPERFSGSSSGGRATLTISGAQAEDDGDYYCQSADSSGNASVFGGGTHLTVLG

KA [2]: 6.18e+07 M⁻¹
Rmax [2]: 51.5 RU
ka [2]: 48400 M⁻¹ s⁻¹
kd [2]: 0.000784 s⁻¹
B10: 18F8: antagonistic IL-6-specific Fab clone from immunized llama (antibody, listed as Lama glama, V domains shown)
VH: B8 VH with S31R, Y32N, D101Y
VL: QSALTQPSALSVTLGQTAKITCQGGSLGSRYAHWYQQKPGQAPVLVIYDDDSRPSGIPERFSGSSSGGRATLTISGAQAEDEGDYYCQSADTSEHIVFGGGTHLTVLG
